Molecular target: GFP(+36)
Assay: time-resolved fluorescence anisotropy; AfFtn-GFP(+36) assembly at pH 7.6 with 500 mM NaCl and with 175 mM NaCl; [GFP] = 1 uM; biexponential fit (instrument response, rotational diffusion of the assembly), no homoFRET; triplicate

- stoichiometry N: 12 to 1
Substance: AfFtn (from UniProt O29424 1-173)

— paper PMC12893043
